The source of these data is the supplement of paper PMC9170038.

This series concerns MS2 coat protein. The series is described as follows: apparent KD of MS2 coat protein; designed switch direction (-1 OFF switch, 1 ON switch): -1; higher = weaker reporter binding. Summed up:
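The apparent KD reported per design is the median over clusters of curve fits to normalised cluster fluorescence. The RNA switches were transcribed on Illumina chips by stalled E. coli RNA polymerase. SNAP-549-labelled MS2 coat protein was titrated from 0.7 or 1.5 nM, doubling up to 3 µM, in Tris-HCl pH 7.5 buffer containing KCl, MgCl2, BSA, DTT, tRNA and Tween-20, with no input, 200 uM small-molecule ligand, or an oligonucleotide input.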

The mark [1] stands for this setting: Eterna round: R95, input ligand: FMN 200 uM.
[2] abbreviates: Eterna round: R95, input ligand: microRNA oligo, concentration not stated.
Where [3] appears, read: Eterna round: R95, input ligand: none.
Where [4] appears, read: input ligand: microRNA oligo, concentration not stated.

Turning to “ACGUAGGUAGUUAGGAUAUUUAGUAUAUUUACAGUGAAGAAGGAACAUGAGGAUCACCCAUGUAGUGGUGUCCA [Eternabot (L1) Solution 68] (Eterna round: R97, puzzle: Brourd's mod of Exclusion 4)”, the “apparent KD of MS2 coat protein” value (input ligand: FMN 200 uM) turned out to be 1200 nM and the “apparent KD of MS2 coat protein” value (input ligand: none) came to 3180 nM.

For the sequence “ACGUGAUAUCUGUCGGUGGACAUGAGGAUCACCCAUGUAAGCUUUUUGCCCGUCUUAUAACCCGGUGACAGACCUUC [Orlequla] (puzzle: Sensor v3, turn-off variant 1)”, the “apparent KD of MS2 coat protein” value by setting is: under setting [1], 32.4 nM; under setting [2], 340 nM; under setting [3], 53.6 nM.

Consider “ACUAGAUGAGGAUAUGCAUAUUUUCGUGUUCUUCUAGGUUAACAUGAGGAUCACCCAUGUAGAAGGCGUCUAUU [Exclusion 2 - 23] (puzzle: Exclusion 2)”, for which the “apparent KD of MS2 coat protein” value under setting [2] came out at 18.6 nM.

For the sequence “ACUCAGUGAGGAUAUCGCCAGAGAGCCACAACGGCCUCUGAUGAGAAGGCACAUGAGGAUCACCCAUGUAAGCA [EX4 C.2] (Eterna round: R97, puzzle: Exclusion 4)”, the “apparent KD of MS2 coat protein” value worked out at 45.4 nM (input ligand: FMN 200 uM) and 252 nM (input ligand: none).

With “ACUCGACAUGAGGAUCACCCAUGUGAGGAUAUGGCCUGUAUGGCGUGAGCUGGCUAAAUCAGAAGGCGCGUGGG [salish99_ex1_r4_049] (Eterna round: R97, puzzle: Exclusion 1)”, the “apparent KD of MS2 coat protein” value (input ligand: FMN 200 uM) was 222 nM and the “apparent KD of MS2 coat protein” value (input ligand: none) turned out to be 194 nM.

With “ACUCGACAUGAGGAUCACCCAUGUGAGGAUAUGGCCUGUAUGGCGUGAGCUGGCUCAAUAAGAAGGCGCGUGGG [salish99_ex1_r4_051] (Eterna round: R97, puzzle: Exclusion 1)”, the “apparent KD of MS2 coat protein” value (input ligand: FMN 200 uM) is 235 nM and the “apparent KD of MS2 coat protein” value (input ligand: none) worked out at 188 nM.

For “ACUCGACAUGAGGAUCACCCAUGUGAGGAUAUGGCCUGUUUGGCGUGAGCUGGCUCUGUCAGAAGGCGCGUGGG [salish99_ex1_r4_045] (Eterna round: R97, puzzle: Exclusion 1)”, the “apparent KD of MS2 coat protein” value is, setting by setting: (input ligand: FMN 200 uM) 138 nM; (input ligand: none) 75.5 nM.

With “ACUGGUCGAGGAUAUACGAUCGUGCUUCGGCACGUAAGAUCACAUGAGGAUCACCCAUGUAGAAGGCGACCAGU [Mod 4 - Jieux - Exclusion 2] (Eterna round: R97, puzzle: Exclusion 2)”, the “apparent KD of MS2 coat protein” value (input ligand: FMN 200 uM) was 246 nM and the “apparent KD of MS2 coat protein” value (input ligand: none) was found to be 35.3 nM.

Take “ACUUACUGAGGAUAUACAUAGAUUUACAUGAGGAUCACCCAUGUUCCUCUAUGUAUAAAUGUAGAAGGCAGAAGAU [Mat - Exclusion 5 - JL Mod - D55] (Eterna round: R97, puzzle: Exclusion 5)”: the “apparent KD of MS2 coat protein” value runs as follows: (input ligand: FMN 200 uM) 64.2 nM; (input ligand: none) 17.8 nM.

On to “ACUUAUAGAGGAUAUACAGAAUAUUACAUGAGGAUCACCCAUGUUCUUCAAUGUAUAUAAGUAGAAGGCUAAGGAU [Mat - Exclusion 5 - JL Mod - D4] (Eterna round: R97, puzzle: Exclusion 5)”, for which the “apparent KD of MS2 coat protein” value worked out at 183 nM (input ligand: FMN 200 uM) and 25.4 nM (input ligand: none).

For the sequence “ACUUAUAGAGGAUAUACAGAAUAUUACAUGAGGAUCACCCAUGUUCUUCAAUGUAUAUUUGUAGAAGGCUAAGGAA [EX-5 Malc#7] (Eterna round: R96, puzzle: Exclusion 5)”, under setting [4], the “apparent KD of MS2 coat protein” value amounted to 46.6 nM.

With “ACUUAUAGAGGAUAUACAGAAUAUUACAUGAGGAUCACCCAUGUUCUUCAAUGUAUAUUUGUAGAAGGCUAAGGAA [EX-5 Malc#7] (puzzle: Exclusion 5)”, the “apparent KD of MS2 coat protein” value by setting is: under setting [1], 192 nM; under setting [2], 45.6 nM; under setting [3], 40.6 nM.

With “ACUUAUAGAGGAUAUACAGUAUAUUACAUGAGGAUCACCCAUGUUCUUCAAUGUAUAUAUGUAGAAGGCUAAGGAA [EX-5 Malc#6] (puzzle: Exclusion 5)”, under setting [2], the “apparent KD of MS2 coat protein” value amounted to 183 nM.

As for “ACUUAUUGAGGAUAUACAGAAAAUUACAUGAGGAUCACCCAUGUUCUUCAAUGUAUAUAUGUAGAAGGCAGAAGAU [Mat - Exclusion 5 - JL Mod - D16] (Eterna round: R97, puzzle: Exclusion 5)”, the “apparent KD of MS2 coat protein” value is, setting by setting: (input ligand: FMN 200 uM) 48.9 nM; (input ligand: none) 14.5 nM.

Turning to “ACUUAUUGAGGAUAUACAUUAAAUUACAUGAGGAUCACCCAUGUUCUUCAAUGUAUAUAUGUAGAAGGCAAAAGAG [Mat - Exclusion 5 - JL Mod - D22] (Eterna round: R97, puzzle: Exclusion 5)”, the “apparent KD of MS2 coat protein” value runs as follows: (input ligand: FMN 200 uM) 26.5 nM; (input ligand: none) 14.4 nM.

Turning to “ACUUAUUGAGGAUAUACAUUAAAUUACAUGAGGAUCACCCAUGUUCUUCAAUGUAUAUAUGUAGAAGGCAGAAGAU [Mat - Exclusion 5 - JL Mod - D20] (Eterna round: R97, puzzle: Exclusion 5)”, the “apparent KD of MS2 coat protein” value amounted to 18.2 nM (input ligand: FMN 200 uM) and 14.4 nM (input ligand: none).

Regarding “ACUUAUUGAGGAUAUACAUUGAUUAACAUGAGGAUCACCCAUGUACAAACAUGUAUUUAUGUAGAAGGCAGAAGAA [JR_Ex5_Sub067] (Eterna round: R97, puzzle: Exclusion 5)”, the “apparent KD of MS2 coat protein” value by setting is: (input ligand: FMN 200 uM) 14.4 nM; (input ligand: none) 13.4 nM.

As to “ACUUUUAGUGGUCAAACUCACAUGAGGAUCACCCAUGUUUACAGGCUUAGGUGCUUGUCUUAUACUAAGGUUUACCG [Eternabot (L1) Solution 44] (Eterna round: R97, puzzle: Sensor, turn-off variant 1)”, the “apparent KD of MS2 coat protein” value (input ligand: FMN 200 uM) came to 96.9 nM and the “apparent KD of MS2 coat protein” value (input ligand: none) is 122 nM.

Regarding “AGAAAUGCCCAUGGCCACAAGCUCUUUGCUUGUCUUACUACAUGAGGAUCACCCAUGUAACAUGGGCUCCUGAUAAU [Been] (puzzle: Sensor v3, turn-off variant 2)”, the “apparent KD of MS2 coat protein” value stood at 12.2 nM under setting [1], 9.19 nM under setting [2] and 11.3 nM under setting [3].

In the case of “AGAAAUGCCCAUGGCCGCAAGCUUUCUGCUUGUCUUACCACAUGAGGAUCACCCAUGUGACAUGGGCUCCUUAUAAU [Soralaer] (puzzle: Sensor v3, turn-off variant 2)”, the “apparent KD of MS2 coat protein” value under setting [1] is 14.4 nM, the “apparent KD of MS2 coat protein” value under setting [2] worked out at 11 nM and the “apparent KD of MS2 coat protein” value under setting [3] amounted to 13.2 nM.

Consider “AGAACUCUAGUAGGAUAUGUCGGAUAUGUUGUUGAGGUUCACCCAACGACGUCAAUGACAGAAGGACAGAAGGACUCCUGUUCA [pwkr exNG2 2xFMN 1xF5.8] (Eterna round: R96, puzzle: Exclusion NG 2)”, for which the “apparent KD of MS2 coat protein” value by setting is: (input ligand: FMN 200 uM) 1020 nM; under setting [4], 3670 nM; (input ligand: none) 711 nM.

As for “AGAAGUAGGAACCGAUCCUACAUGAGGAUCACCCAUGUAGCAAGACGUGCACGCGAAGCUCGUCAGACUACCAGAUG [salish99_TOv1_r3_021] (puzzle: Sensor v3, turn-off variant 1)”, the “apparent KD of MS2 coat protein” value reads like this: under setting [1], 558 nM; under setting [2], 399 nM; under setting [3], 531 nM.

For “AGAAGUAGUAACCGAUCCUACAUGAGGAUCACCCAUGUAGCGGGACGUGCACGCGAAGCUCGUCAGACUACCAGAUG [salish99_TOv1_r3_024] (puzzle: Sensor v3, turn-off variant 1)”, the “apparent KD of MS2 coat protein” value amounted to 27.2 nM under setting [1], 26.7 nM under setting [2] and 28.6 nM under setting [3].

As for “AGAGAAUACUCAGGAUAUCUGAAUAGAUAGAGAAGAGAAGGGAGACAUGAGGAUCACCCAUGUGAAGUCUUGAGGCUGCAUGGA [Prohibition 24 - Jieux - Exclusion NG 1] (Eterna round: R96, puzzle: Exclusion NG 1)”, the “apparent KD of MS2 coat protein” value runs as follows: (input ligand: FMN 200 uM) 165 nM; under setting [4], 85.6 nM; (input ligand: none) 209 nM.

On to “AGAGAAUACUCAGGAUAUGUGAAUAGAUAGAGAACAGAAGGGAGACAUGAGGAUCACCCAUGUGAAGUCUUGAGGCUGCAUGGA [Prohibition 23 - Jieux - Exclusion NG 1] (Eterna round: R96, puzzle: Exclusion NG 1)”, for which the “apparent KD of MS2 coat protein” value is, setting by setting: (input ligand: FMN 200 uM) 403 nM; under setting [4], 408 nM; (input ligand: none) 337 nM.

Consider “AGAGAGUCAGGAUAUGACGAAGAGAACAUGAGGAUCACCCAUGUAGCUUCGUAAUCAUCGUCAGAAGGGACGAACU [JR_Ex5_Sub090] (Eterna round: R97, puzzle: Exclusion 5)”, for which the “apparent KD of MS2 coat protein” value is 14.7 nM (input ligand: FMN 200 uM) and 14.8 nM (input ligand: none).

Take “AGAGUGCUGCGAGGAUAUACAUGAGGAUCACCCAUGUAAAUGUGUGAGGCUUUGCCUCACACAAUGUAGAAGGCGCAGUACUCA [Mat - Exclusion NG 2 - Mod of JL - D2] (Eterna round: R96, puzzle: Exclusion NG 2)”: the “apparent KD of MS2 coat protein” value (input ligand: FMN 200 uM) worked out at 19 nM, the “apparent KD of MS2 coat protein” value under setting [4] is 10.7 nM and the “apparent KD of MS2 coat protein” value (input ligand: none) stood at 14.4 nM.

Consider “AGAGUGCUGCGAGGAUAUACAUGAGGAUCACCCAUGUGGUCCUGUGAGGCAAAGCCUCACAGGAUGUAGAAGGCGCAGUACUCA [Mat - Exclusion NG 2 - Mod of JL - D46] (Eterna round: R96, puzzle: Exclusion NG 2)”, for which the “apparent KD of MS2 coat protein” value (input ligand: FMN 200 uM) came out at 57 nM, the “apparent KD of MS2 coat protein” value under setting [4] amounted to 14.2 nM and the “apparent KD of MS2 coat protein” value (input ligand: none) is 19.9 nM.

On to “AGAGUGGUGCGAGGAUAUACAUGAGGAUCACCCAUGUAAACGUGUGAGGCAAAGCCUCACACGAUGUAGAAGGCGCACUACUCA [Mat - Exclusion NG 2 - Mod of JL - D15] (Eterna round: R96, puzzle: Exclusion NG 2)”, for which the “apparent KD of MS2 coat protein” value turned out to be 17.3 nM (input ligand: FMN 200 uM), 9.9 nM under setting [4] and 15.8 nM (input ligand: none).

For “AGAUAACAUGAGGAUCACCCAUGUGAGGAUAUUUACCCAAGAGCUUCGGCUCUCAGGUGAAGAAGGCACAUUGA [EX1 #58] (Eterna round: R97, puzzle: Exclusion 1)”, the “apparent KD of MS2 coat protein” value amounted to 316 nM (input ligand: FMN 200 uM) and 86.4 nM (input ligand: none).
